# Measurements from the supplement of paper PMC12042874.
# ± gives the uncertainty stated by the source.
# Test: amyloid nucleation score (Sup35N fusion, yeast selection) (log enrichment); library NNK3; higher = more nucleation; inactive = no reads after selection
# Procedure, shortened: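 Using DiMSum, nucleation scores were taken as the log enrichment of output over input reads, centred on the mode score of non-aggregating sequences. The input and output reads came from Illumina sequencing of plasmid inserts, with sequences under 100 input reads excluded. The yeast were psi-negative, expressed Sup35N fused to peptides of 20 random codons, were induced with 100 μM copper sulfate for 24 hours, and were grown 7 days at 30°C on medium lacking adenine and uracil.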
row,Substance,amyloid nucleation score
1,IKRSGGYVGFCRLVERSQRG,inactive
2,IKYKDKGIWFLVSCGHFRLR,inactive
3,ILDDSSWNSLTANVVVWTYF,-1.05 ± 1.3
4,ILFLNHDMWQCDNDSLKAIH,inactive
5,ILFRGPKLCKNGHVL,inactive
6,ILHLQSPGQATCANNKCLFP,inactive
7,ILIEVFLWSCYKYVNC,inactive
8,ILIPNNFLLMQLDWLLIEF,inactive
9,ILIRREFGLFTNFSMYGSKA,inactive
10,ILKLQEQTSNGLAVSNESSC,inactive
11,ILKYCQTSLRGERPILLLDF,inactive
12,ILLIINFG,2.21 ± 0.065
13,ILLQVLIR,inactive
14,ILPGL,inactive
15,ILQMVDVGMEICYTPVLAYF,inactive
16,ILRWRHMVVWSPNVHGVGAF,inactive
17,ILSLTFCVRRGEHGMASFCL,0.07 ± 0.46
18,ILTIEDGIIYC,inactive
19,ILVFM,0.509 ± 0.24
20,ILVYSVLIV,inactive
21,IMDGFWCIDTGCLTAHGMWM,inactive

row,Substance,amyloid nucleation score
1,IMEFYERMLFL,inactive
2,IMGTYKSDLVAARFRFYV,inactive
3,IMKTYLLMLSFFRNPPMVVL,inactive
4,IMRMRLVCWTYKYNSLLPFV,inactive
5,IMSRCKNSYASLATVSCRSL,inactive
6,IMYSYNGRLCGTIELSFPGL,0.814 ± 0.26
7,INLGKTSIRSIDRNNVCMLG,inactive
8,INMALYSSLNLVG,1.32 ± 0.078
9,INMNDSINGS,0.231 ± 0.62
10,INPLLR,0.744 ± 0.2
11,INSRKSHGLSEPSHYQT,inactive
12,INTKECYHSGS,inactive
13,INWCSVTDRCHKGMCLKSAG,inactive
14,INYQLMW,0.9 ± 0.1
15,IPAELDRQNSSAVNTPYHEM,inactive
16,IPDDDFFLLALSTLN,inactive
17,IPLDRMCFFSMK,inactive
18,IPQNNLSDWLKCQMILVKEY,inactive
19,IPSWREWVYGVINWRAGSSP,inactive
20,IPYKHIHRMPFFYHWQQRFG,inactive
21,IQLIILMASTGSLYLPSDWT,0.349 ± 0.18

row,Substance,amyloid nucleation score
1,IQNSRNNKHYATFGTQFFMS,inactive
2,IQSAMSLIVIYHGK,2.69 ± 0.076
3,IQYLLLLSTTARFLWKCFSL,0.37 ± 0.28
4,IRFPTHSMYSLLYKRFLSPD,-0.744 ± 1.8
5,IRGFVSIW,inactive
6,IRGYFIPCGETLDEDLLFKQ,inactive
7,IRRRLEMLNTSLYSHI,inactive
8,IRTFIIQADSSVVPIKVFYR,1.55 ± 0.099
9,IRTGDLVFVWYIRVTNTIPC,inactive
10,IRVMA,inactive
11,IRVSVVRSICMQSGRCEYQA,1.21 ± 0.15
12,IRYPVRV,inactive
13,ISDHTLAGIIFC,inactive
14,ISFLADYRQPSVKFVGGYVM,inactive
15,ISGHGMKAVMSVDHSLY,inactive
16,ISGKSHSFCCVTLFHLREGI,1.12 ± 0.17
17,ISINMRAGMDG,inactive
18,ISISLLFGMTFTSFSRLIHF,1.42 ± 0.11
19,ISIVKGCAFGLLSTFMATPS,0.079 ± 0.75
20,ISKLVY,inactive
21,ISLDLG,inactive

row,Substance,amyloid nucleation score
1,ISLLTVHTVSVTF,inactive
2,ISLVGFHVKLVFL,2.11 ± 0.09
3,ISMFCMIGFEVW,inactive
4,ISNHLVVEYVRWIKSKLLGR,inactive
5,ISNSLSIEGLAY,inactive
6,ISPVRRWPQLLIYAMVTGGQ,inactive
7,ISQCVCSSYA,-0.265 ± 0.7
8,ISQQTFNFALSMCTSPASRI,inactive
9,ISRSYCCVYT,inactive
10,ISSFCRGLVAFEPCWFGLEK,inactive
11,ISSPDSTTIRNDVSD,inactive
12,ISTARCNLLCRCWLRIYYND,inactive
13,ISTCMMFLF,inactive
14,ISTIRYNISYANAYYSSRQG,0.699 ± 0.21
15,ISTKGITTRSLLDFKILCIT,inactive
16,ISVTNGIMMVPLNGSNLFPS,-0.166 ± 0.62
17,ITCCM,inactive
18,ITFVRGWVFDLQFNATE,0.55 ± 0.37
19,ITICVSIF,1.75 ± 0.072
